Values quoted from earlier work as cited in paper PMC8138766.
Read-outs that look alike come from different tables or passages of the source.

Tests used:
[1] = target: V-ATPase subunit C (Saccharomyces cerevisiae) (UniProt P31412)
[2] = target: V-ATPase subunit C (Saccharomyces cerevisiae) (UniProt P31412); remark: listed apart in the source

Sequence of V-ATPase subunit C (Saccharomyces cerevisiae) (P31412 2-392): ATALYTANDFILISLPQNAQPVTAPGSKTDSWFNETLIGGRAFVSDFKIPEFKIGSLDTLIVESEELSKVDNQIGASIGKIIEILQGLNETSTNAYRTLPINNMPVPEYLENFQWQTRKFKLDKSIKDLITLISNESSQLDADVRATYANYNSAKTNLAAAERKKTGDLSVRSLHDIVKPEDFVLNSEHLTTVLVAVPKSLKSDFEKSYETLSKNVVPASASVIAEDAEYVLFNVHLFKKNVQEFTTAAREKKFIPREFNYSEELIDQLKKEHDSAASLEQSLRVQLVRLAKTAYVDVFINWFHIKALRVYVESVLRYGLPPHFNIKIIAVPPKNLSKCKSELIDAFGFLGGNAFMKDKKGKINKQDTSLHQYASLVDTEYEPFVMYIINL
Sequence of V1 (P17255 2-1071): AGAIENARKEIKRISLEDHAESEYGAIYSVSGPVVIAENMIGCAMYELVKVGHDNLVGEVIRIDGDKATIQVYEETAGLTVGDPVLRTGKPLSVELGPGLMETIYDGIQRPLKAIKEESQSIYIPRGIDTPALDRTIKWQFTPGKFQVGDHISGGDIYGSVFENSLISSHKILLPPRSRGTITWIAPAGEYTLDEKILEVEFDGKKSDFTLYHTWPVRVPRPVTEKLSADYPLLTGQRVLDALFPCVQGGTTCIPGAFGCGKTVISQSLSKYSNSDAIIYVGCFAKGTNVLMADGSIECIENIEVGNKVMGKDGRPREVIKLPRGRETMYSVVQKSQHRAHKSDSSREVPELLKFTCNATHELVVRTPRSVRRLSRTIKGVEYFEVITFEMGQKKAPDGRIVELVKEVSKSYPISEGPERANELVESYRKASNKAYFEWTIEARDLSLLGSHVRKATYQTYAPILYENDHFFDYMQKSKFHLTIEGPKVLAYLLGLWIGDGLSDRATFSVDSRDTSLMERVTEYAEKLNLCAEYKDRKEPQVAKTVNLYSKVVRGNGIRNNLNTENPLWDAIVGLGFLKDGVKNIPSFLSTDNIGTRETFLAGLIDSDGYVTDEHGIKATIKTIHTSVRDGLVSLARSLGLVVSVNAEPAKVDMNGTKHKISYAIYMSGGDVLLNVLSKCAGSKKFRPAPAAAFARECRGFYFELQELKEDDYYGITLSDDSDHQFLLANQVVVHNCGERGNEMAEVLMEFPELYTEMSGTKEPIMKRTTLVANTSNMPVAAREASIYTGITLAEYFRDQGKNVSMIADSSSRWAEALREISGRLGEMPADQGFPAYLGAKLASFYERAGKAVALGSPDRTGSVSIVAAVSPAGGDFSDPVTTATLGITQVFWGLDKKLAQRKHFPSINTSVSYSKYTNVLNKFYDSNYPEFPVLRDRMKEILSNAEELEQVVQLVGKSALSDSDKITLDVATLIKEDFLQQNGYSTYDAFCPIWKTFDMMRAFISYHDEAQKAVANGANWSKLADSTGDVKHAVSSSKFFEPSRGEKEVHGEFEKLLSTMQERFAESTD
Sequence of V1 (P16140 2-517, further chain): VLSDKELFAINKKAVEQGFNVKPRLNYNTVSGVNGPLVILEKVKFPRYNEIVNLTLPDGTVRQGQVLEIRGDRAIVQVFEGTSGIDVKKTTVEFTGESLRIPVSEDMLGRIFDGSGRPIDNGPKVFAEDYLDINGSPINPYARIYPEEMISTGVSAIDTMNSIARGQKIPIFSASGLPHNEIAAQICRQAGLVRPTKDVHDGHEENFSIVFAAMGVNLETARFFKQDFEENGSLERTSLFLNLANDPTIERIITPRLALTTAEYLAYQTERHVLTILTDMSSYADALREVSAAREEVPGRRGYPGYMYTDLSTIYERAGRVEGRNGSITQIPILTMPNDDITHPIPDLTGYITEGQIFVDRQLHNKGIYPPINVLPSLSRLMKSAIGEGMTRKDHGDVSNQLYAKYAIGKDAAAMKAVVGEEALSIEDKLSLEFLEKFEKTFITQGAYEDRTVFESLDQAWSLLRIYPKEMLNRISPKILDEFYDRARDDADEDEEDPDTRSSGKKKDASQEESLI
Sequence of EG stalk (P22203 2-233): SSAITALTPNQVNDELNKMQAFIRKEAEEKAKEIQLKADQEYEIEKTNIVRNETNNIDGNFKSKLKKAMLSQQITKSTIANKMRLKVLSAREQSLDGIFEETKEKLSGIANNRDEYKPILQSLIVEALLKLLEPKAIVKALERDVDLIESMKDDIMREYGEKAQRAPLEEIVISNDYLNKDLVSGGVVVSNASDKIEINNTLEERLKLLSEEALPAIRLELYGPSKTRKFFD
Sequence of EG stalk (P48836 2-114, further chain): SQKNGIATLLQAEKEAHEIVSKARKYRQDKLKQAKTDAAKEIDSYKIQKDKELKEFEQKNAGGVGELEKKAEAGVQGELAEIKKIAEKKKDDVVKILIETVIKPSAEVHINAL

Row | Substance | Kd [1] [µM] | Kd [2] [µM]
1 | EG stalk (from UniProt P22203) | 0.042 | 
2 | V1 (from UniProt P17255) |  | 0.0007
